# Measured values reported in patent US20240239894A1 (AstraZeneca / MedImmune, published 2024).
# T1: huBTN2A1 (human, UniProt Q7KYR7 29-248, limits assumed)
# T1 construct: Sourced antigen; construct not described; also called Human BTN2A1
# T1 sequence (looked up): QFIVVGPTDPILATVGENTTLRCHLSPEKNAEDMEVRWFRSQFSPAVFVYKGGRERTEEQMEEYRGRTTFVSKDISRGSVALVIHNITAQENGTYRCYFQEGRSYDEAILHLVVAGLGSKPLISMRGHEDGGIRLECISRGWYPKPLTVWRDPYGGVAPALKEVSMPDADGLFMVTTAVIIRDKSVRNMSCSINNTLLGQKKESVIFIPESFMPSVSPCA
# T2: huBTNL3 (human, UniProt Q6UXE8 18-237, limits assumed)
# T2 construct: Sourced antigen; construct not described; also called Human BTNL3
# T2 sequence (looked up): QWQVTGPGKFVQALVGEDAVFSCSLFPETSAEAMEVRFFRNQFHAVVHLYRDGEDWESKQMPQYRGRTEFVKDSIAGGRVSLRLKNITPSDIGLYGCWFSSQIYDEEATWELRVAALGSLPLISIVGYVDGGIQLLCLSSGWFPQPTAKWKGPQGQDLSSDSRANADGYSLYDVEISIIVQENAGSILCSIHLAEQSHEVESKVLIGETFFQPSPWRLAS
# T3: Human B7-H4-Fc (Human B7H4 ECD, Fc_6His) (human)
# T3 construct: also called FcHis6 tagged human B7-H4
# T3 sequence (Q7Z7D3 whole entry, looked up): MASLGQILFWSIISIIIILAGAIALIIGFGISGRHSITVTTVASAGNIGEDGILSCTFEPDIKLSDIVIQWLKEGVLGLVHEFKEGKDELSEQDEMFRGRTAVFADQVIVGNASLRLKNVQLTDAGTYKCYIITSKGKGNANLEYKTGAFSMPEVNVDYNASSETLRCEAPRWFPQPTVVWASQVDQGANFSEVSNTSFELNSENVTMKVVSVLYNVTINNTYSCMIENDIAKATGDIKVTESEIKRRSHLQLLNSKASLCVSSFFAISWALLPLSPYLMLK
# T4: Murine B7-H4-Fc (Mouse B7H4 ECD, Fc_6His) (mouse, UniProt Q7TSP5 25-257)
# T4 construct: extracellular domain; also called mouse B7-H4-Fc; FcHis6 tagged murine B7-H4
# T4 sequence (Q7TSP5 whole entry, looked up): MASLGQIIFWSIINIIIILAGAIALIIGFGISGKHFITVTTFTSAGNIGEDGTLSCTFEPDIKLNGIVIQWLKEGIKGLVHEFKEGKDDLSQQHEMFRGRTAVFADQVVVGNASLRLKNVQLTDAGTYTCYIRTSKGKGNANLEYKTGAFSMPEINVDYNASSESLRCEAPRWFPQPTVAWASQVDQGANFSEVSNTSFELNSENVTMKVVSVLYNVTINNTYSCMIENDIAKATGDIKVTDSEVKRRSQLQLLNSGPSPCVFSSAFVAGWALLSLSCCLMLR
# T5: huHHLA2 (human, UniProt Q9UM44 23-344)
# T5 construct: Sourced antigen; construct not described; also called Human HHLA2
# T5 sequence (looked up): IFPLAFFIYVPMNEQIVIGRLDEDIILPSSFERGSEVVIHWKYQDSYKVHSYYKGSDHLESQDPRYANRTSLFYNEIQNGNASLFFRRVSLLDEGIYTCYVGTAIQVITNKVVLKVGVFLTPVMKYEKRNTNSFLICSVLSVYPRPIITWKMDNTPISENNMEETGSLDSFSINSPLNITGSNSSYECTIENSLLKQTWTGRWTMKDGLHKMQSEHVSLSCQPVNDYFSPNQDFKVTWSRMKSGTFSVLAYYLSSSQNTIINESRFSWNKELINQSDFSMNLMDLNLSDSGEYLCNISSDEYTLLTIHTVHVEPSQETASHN
# T6: huBTN1A1 (human, UniProt Q13410 27-242, limits assumed)
# T6 construct: Sourced antigen; construct not described; also called Human BTN1A1
# T6 sequence (looked up): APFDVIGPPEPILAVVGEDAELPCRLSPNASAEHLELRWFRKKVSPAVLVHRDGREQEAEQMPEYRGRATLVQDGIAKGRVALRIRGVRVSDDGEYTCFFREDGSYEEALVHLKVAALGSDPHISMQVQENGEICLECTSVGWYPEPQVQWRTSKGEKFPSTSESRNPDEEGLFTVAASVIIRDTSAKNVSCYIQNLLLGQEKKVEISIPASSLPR
# T7: huB7-H3 (human, UniProt Q5ZPR3 29-461, limits assumed)
# T7 construct: Sourced antigen; construct not described; also called Human B7-H3
# T7 sequence (looked up): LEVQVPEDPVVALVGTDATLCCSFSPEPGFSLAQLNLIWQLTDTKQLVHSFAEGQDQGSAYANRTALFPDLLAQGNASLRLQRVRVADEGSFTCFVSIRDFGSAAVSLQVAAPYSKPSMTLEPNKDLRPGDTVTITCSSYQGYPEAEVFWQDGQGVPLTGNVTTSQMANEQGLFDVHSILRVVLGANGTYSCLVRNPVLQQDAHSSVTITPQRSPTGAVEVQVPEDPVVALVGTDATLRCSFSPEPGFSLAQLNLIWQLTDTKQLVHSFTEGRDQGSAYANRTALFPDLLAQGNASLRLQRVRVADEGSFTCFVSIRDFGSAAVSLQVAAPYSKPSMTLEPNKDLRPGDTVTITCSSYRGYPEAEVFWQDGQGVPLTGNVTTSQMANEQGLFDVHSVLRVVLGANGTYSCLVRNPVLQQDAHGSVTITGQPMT
# T8: huB7-H2 (human, UniProt O75144 19-258)
# T8 construct: Sourced antigen; construct not described; also called Human B7-H2
# T8 sequence (looked up): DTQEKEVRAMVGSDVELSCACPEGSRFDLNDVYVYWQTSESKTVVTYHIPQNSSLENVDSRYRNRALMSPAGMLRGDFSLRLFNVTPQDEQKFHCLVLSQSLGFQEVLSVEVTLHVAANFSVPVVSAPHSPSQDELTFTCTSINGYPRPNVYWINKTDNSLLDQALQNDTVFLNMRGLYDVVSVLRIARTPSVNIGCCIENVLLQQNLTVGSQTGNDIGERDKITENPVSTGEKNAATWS
# T9: Human B7-H4 ECD-Flag-His10 (monomeric) (human, UniProt Q7Z7D3 25-259)
# T9 construct: Minimally biotinylated for KinExA; also called hB7H4-ECD-Flag-His10; B7-H4-FLAG
# T9 sequence: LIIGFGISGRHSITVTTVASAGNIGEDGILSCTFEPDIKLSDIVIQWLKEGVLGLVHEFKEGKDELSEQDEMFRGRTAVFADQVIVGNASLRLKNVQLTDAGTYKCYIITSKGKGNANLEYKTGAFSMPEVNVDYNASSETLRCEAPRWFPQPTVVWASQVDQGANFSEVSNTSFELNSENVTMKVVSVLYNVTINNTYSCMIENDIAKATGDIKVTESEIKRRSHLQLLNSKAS
# T10: Human B7H4 (ECD) Fc TM 6H (human, UniProt Q7Z7D3)
# T10 construct: ECD, native leader
# T10 sequence (Q7Z7D3 whole entry, looked up): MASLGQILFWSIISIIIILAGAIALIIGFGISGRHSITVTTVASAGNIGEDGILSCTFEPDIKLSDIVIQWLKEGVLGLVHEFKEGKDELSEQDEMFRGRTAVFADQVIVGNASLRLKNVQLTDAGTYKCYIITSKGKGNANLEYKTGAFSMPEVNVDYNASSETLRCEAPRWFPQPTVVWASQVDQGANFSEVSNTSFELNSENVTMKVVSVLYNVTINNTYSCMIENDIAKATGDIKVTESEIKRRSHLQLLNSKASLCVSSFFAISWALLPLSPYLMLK
# B1: ZY0EPQ-E02 murine IgG1 (antibody, V domains shown)
# VH: QVQLQQWGAGLLKPSETLSLTCAVYGGSFSGYYWNWIRQPPGKGLEWIGEINHSGSTNYNPSLKSRVTILVDTSKNQFSLKLSSVTAADTAVYYCARNLYNWNLDSWGQGTLVTVSS
# VL: DIQMTQSPSSLSASVGDRVTITCRASQGIRNDLGWYQQKPGRAPKRLIYVASSLQSGVPSRFSGSGSGTEFTLTISSLQPEDFATYYCLQHNSYPRTFGQGTKVEIK
# B2: ZY0EQD-E02 murine IgG1 (antibody, V domains shown)
# VH: QVQLQQWGAGLLKPSETLSLTCAVYGGSFSGYYWNWIRQPPGKGLEWIGEINHSGSTSYNPSLKSRVTISVDTSKNQFSLKLSSVTAADTAVYYCARVLYNWNVDSWGQGTLVTVSS
# VL: DIQMTQSPSSLSASVGDRVTITCRASQDIRNDVGWYQQKPGKAPKRLIYAASRLQSGVPSRFSGSGSGTEFTLTISSLQPEDFATYYCLQHNSYPRTFGQGTKVEIK
# B3: E02-GL-maia (antibody, human IgG1, kappa)
# heavy: QVQLQQWGAGLLKPSETLSLACTVYGGSFSGYYWNWIRQPPGKGLEWIGEINHSGSTSYNPSLKSRVTISVDTSKNQFSLKLSSVTAADTAVYYCARVLYNWNVDSWGQGTLVTVSSASTKGPSVFPLAPSSKSTSGGTAALGCLVKDYFPEPVTVSWNSGALTSGVHTFPAVLQSSGLYSLSSVVTVPSSSLGTQTYICNVNHKPSNTKVDKRVEPKSCDKTHTCPPCPAPELLGGPSCVFLFPPKPKDTLMISRTPEVTCVVVDVSHEDPEVKFNWYVDGVEVHNAKTKPREEQYNSTYRVVSVLTVLHQDWLNGKEYKCKVSNKALPAPIEKTISKAKGQPREPQVYTLPPSREEMTKNQVSLTCLVKGFYPSDIAVEWESNGQPENNYKTTPPVLDSDGSFFLYSKLTVDKSRWQQGNVFSCSVMHEALHNHYTQKSLSLSPGK
# light: DIQMTQSPSSLSASVGDRVTITCRASQDIRNDVGWYQQKPGKAPKRLIYAASRLQSGVPSRFSGSGSGTEFTLTISSLQPEDFATYYCLQHNSYPRTFGQGTKVEIKRTVAAPSVFIFPPSDEQLKSGTASVVCLLNNFYPREAKVQWKVDNALQSGNSQESVTEQDSKDSTYSLSSTLTLSKADYEKHKVYACEVTHQGLSSPVTKSFNRGEC
# notes: Maia format: cysteine insertion in the IgG1 constant region; also called germlined (GL) Maia format mAb
# Tests used:
# [1] = target: T1, huBTN2A1; test: ELISA
# [2] = target: T2, huBTNL3; test: ELISA
# [3] = target: T3, Human B7-H4-Fc (Human B7H4 ECD, Fc_6His); test: HTRF binding, murine IgG1
# [4] = target: T11, Cyno B7-H4-Fc (Cyno B7H4 ECD, FcTM_6His) (cynomolgus monkey); test: HTRF binding, murine IgG1
# T11 construct: extracellular domain; also called cynomolgus B7-H4-Fc
# [5] = target: T4, Murine B7-H4-Fc (Mouse B7H4 ECD, …); test: HTRF binding, murine IgG1
# [6] = target: T5, huHHLA2; test: ELISA, absorbance 450 nm, antigen human HHLA2 GST
# [7] = target: T6, huBTN1A1; test: ELISA, absorbance 450 nm, antigen human BTN1A1 GST
# [8] = target: T12, huBTN3A2 (human, UniProt P78410 30-248, limits assumed); test: ELISA, absorbance 450 nm, antigen human BTN3A2 GST
# T12 construct: Sourced antigen; construct not described; also called Human BTN3A2
# T12 sequence (P78410 30-248 limits assumed): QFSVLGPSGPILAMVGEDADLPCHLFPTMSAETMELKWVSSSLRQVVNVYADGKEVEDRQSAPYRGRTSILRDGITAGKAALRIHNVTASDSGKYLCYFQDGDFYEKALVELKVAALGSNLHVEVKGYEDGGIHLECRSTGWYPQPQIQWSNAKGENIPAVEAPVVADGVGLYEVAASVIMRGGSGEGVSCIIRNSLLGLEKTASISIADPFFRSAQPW
# [9] = target: T7, huB7-H3; test: ELISA, absorbance 450 nm, antigen human B7-H3 (ECD) Fc
# [10] = target: T13, huB7-H1 (human, UniProt Q9NZQ7 19-238); test: ELISA, absorbance 450 nm, antigen human B7-H1(ECD) F10H
# T13 construct: Sourced antigen; construct not described; also called Human B7-H1
# T13 sequence (Q9NZQ7 19-238 limits assumed): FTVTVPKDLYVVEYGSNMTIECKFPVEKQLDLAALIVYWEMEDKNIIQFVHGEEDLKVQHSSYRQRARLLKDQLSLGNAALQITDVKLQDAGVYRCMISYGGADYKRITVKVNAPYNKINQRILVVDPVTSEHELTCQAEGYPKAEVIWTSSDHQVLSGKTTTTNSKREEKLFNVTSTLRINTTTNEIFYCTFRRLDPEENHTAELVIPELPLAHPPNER
# [11] = target: T8, huB7-H2; test: ELISA, absorbance 450 nm, antigen human B7-H2 (ECD) F10H
# [12] = target: T3, Human B7-H4-Fc (Human B7H4 ECD, Fc_6His); test: ELISA, absorbance 450 nm; x axis of this panel printed as Antibody Conc (µg/ml)
# [13] = target: T9, Human B7-H4 ECD-Flag-His10 (monomeric); test: as above
# [14] = target: T3, Human B7-H4-Fc (Human B7H4 ECD, Fc_6His); test: ELISA, absorbance 450 nm; x axis printed as antigen concentration (µg/ml)
# [15] = target: T9, Human B7-H4 ECD-Flag-His10 (monomeric); test: as above
# [16] = target: T11, Cyno B7-H4-Fc (Cyno B7H4 ECD, FcTM_6His); test: ELISA, absorbance 450 nm, Cyno B7H4 (ECD) Fc TM 6H; x axis printed as antigen concentration (nM)
# [17] = target: T10, Human B7H4 (ECD) Fc TM 6H; test: ELISA, absorbance 450 nm, Human B7H4 (ECD) Fc TM 6H; x axis printed as antigen concentration (nM)
Binder,binding result [1],binding result [2],EC50 [3] [nM],Max [3],EC50 [4] [nM],Max [4],EC50 [5] [nM],Max [5],binding result [6],binding result [7],binding result [8],binding result [9],binding result [10],binding result [11],EC50 (read off the curve) [12] [µg/mL],EC50 (read off the curve) [13] [µg/mL],EC50 (read off the curve) [14] [µg/mL],EC50 (read off the curve) [15] [µg/mL],EC50 (read off the curve) [16] [nM],EC50 (read off the curve) [17] [nM]
B1,no binding,no binding,0.38,2740,0.38,2240,2.03,790,no binding (tested: about 10 µg/ml (antigen)),no binding (tested: 10 µg/ml (antigen)),no binding (tested: about 10 µg/ml (antigen)),no binding,no binding (tested: 10 µg/ml (antigen)),no binding (tested: 10 µg/ml (antigen)),~0.2,~0.2,,,,
B2,no binding,no binding,0.22,3170,0.22,2490,3.64,447,no binding (tested: about 10 µg/ml (antigen)),no binding (tested: 10 µg/ml (antigen)),no binding (tested: about 10 µg/ml (antigen)),no binding,no binding (tested: 10 µg/ml (antigen)),no binding (tested: 10 µg/ml (antigen)),,,~0.03,~0.04,,
B3,,,,,,,,,,,,,,,,,,,~10,~10
